Measured values reported in IntAct's records for PubMed 10814541.

B1: Thioredoxin (Homo sapiens), P10599 (parent)
chain: MVKQIESKTAFQEALDAAGDKLVVVDFSATWCGPCKMIKPFFHSLSEKYSNVIFLEVDVDDCQDVASECEVKCMPTFQFFKKGQKVGEFSGANKEKLEATINELV
partner: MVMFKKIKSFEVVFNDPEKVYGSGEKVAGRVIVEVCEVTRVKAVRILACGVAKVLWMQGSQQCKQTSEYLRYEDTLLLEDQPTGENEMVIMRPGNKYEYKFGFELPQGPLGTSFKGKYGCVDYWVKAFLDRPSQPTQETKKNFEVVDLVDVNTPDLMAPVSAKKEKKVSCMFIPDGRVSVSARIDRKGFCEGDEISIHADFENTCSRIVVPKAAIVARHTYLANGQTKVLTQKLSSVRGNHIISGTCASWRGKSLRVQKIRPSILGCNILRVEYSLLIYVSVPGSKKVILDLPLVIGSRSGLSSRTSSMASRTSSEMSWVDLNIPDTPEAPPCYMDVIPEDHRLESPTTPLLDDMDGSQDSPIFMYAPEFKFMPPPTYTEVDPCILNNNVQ

Variants of: B1
Settings: with txnip_human TXNIP

effect of a mutation on the interaction	Variant
decreasing interaction	MVKQIESKTAFQEALDAAGDKLVVVDFSATWSGPSKMIKPFFHSLSEKYSNVIFLEVDVDDCQDVASECEVKCMPTFQFFKKGQKVGEFSGANKEKLEATINELV [C32S;C35S]
